Like-named read-outs stand apart in the source and are kept apart here.
Legend:
NCAP [1] = target: T1, NCAP (SARS-CoV-2, UniProt P0DTC9); test: competition
NCAP [2] = target: T1, NCAP; test: competition; remark: listed apart in the source
NCAP [3] = target: T1, NCAP; test: EMSA
NCAP [4] = target: T1, NCAP; test: EMSA; remark: listed apart in the source
NCAP [5] = target: T1, NCAP; test: EMSA; remark: listed apart in the source
NCAP [6] = target: T1, NCAP; test: EMSA; remark: listed apart in the source
LCD [7] = target: T2, LCD (SARS-CoV-2, UniProt P0DTC9); test: EMSA
DD-C [8] = target: T3, DD-C (SARS-CoV-2, UniProt P0DTC9); test: EMSA
N-RBD [9] = target: T4, N-RBD (SARS-CoV-2, UniProt P0DTC9); test: EMSA
LCD [10] = target: T2, LCD; test: EMSA; remark: listed apart in the source
DD-C [11] = target: T3, DD-C; test: EMSA; remark: listed apart in the source
N-RBD [12] = target: T4, N-RBD; test: EMSA; remark: listed apart in the source

B1: S1hp (structured_RNA)
RNA: GGUUUAUACCUUCCCAGGUAACAAACCAACCAACUUUCGAUCUCUUGUAGAUC
B1: binds (NCAP [1]).

B2: S8hp (structured_RNA)
RNA: GGAAGGAGCUGGUGGCCAUAGUUACGGCGCCGAUCUAAAGUCAUUUGACUUAGGCGACGAGCUUGGCACUGAUCCUUAUGAAGAUUUUCAAGAAAACUGGAACACUAAACAUAGCAGUGGUGUUACCCGUGAACUCAUGCGUGAGCUUAACGGAGGGGCAUACACUCGCUAUGU
B2: binds (NCAP [2]).

B3: F294 (structured_RNA)
RNA: GGAUUAAAGGUUUAUACCUUCCCAGGUAACAAACCAACCAACUUUCGAUCUCUUGUAGAUCUGUUCUCUAAACGAACUUUAAAAUCUGUGUGGCUGUCACUCGGCUGCAUGCUUAGUGCACUCACGCAGUAUAAUUAAUAACUAAUUACUGUCGUUGACAGGACACGAGUAACUCGUCUAUCUUCUGCAGGCUGCUUACGGUUUCGUCCGUGUUGCAGCCGAUCAUCAGCACAUCUAGGUUUCGUCCGGGUGUGACCGAAAGGUAAGAUGGAGAGCCUUGUCCCUGGUUUCAACGA
B3 was tested, and the Kd (NCAP [3]) was 26 ± 10 nM.

B4: SL4 (structured_RNA)
RNA: GGCUGUGUGGCUGUCACUCGGCUGCAUGCUUAGUGCACUCACGCAG
For B4, the Kd (NCAP [4]) was 4800 ± 200 nM and the Kd (NCAP [5]) was 356 ± 43 nM.

B5: SL4 hairpin (structured_RNA)
RNA: GGCUGUGUGGCUGUCACUCGGCUGCAUGCUUAGUGCACUCACGCAG
B5 was tested, and the Kd (NCAP [3]) was 569 ± 67 nM and the Kd (NCAP [6]) was 8600 ± 1000 nM.

B6: Tet3-9 (structured_RNA)
RNA: GGACCGUCAAAUUGCGGGAAAGGGGUCAACAGCCGUUCAGUACCAAGUCUCAGGGGAAACUUUGAGAUGGCCUUGCAAAGGGUAUGGUAAUAAGCUGACGGACAUGGUCCUAACCACGCAGCCAAGUCCUAAGUCAACAGGAGACUGUUGAUAUGGAUGCAGUUCACAGACUAAAUGUCGGUCGGGGAAGAUGUAUUCUUCUCAUAAGAUAUAGUCGGACCUCUCCCGAAAGGGAGUUGGAGUACUCGAAAUUCGUUUGGAGGGCUGCAGGGCCCUCUAGA
B6: binds (NCAP [2]).

B7: SL5 (structured_RNA)
RNA: GGUCGUUGACAGGACACGAGUAACUCGUCUAUCUUCUGCAGGCUGCUUACGGUUUCGUCCGUGUUGCAGCCGAUCAUCAGCACAUCUAGGUUUCGUCCGGGUGUGACCGAAAGGUAAGAUGGAGAGCCUUGUCCCUGGUUUCAACGA
B7 was tested, and the Kd (NCAP [3]) was 166 ± 36 nM and the Kd (NCAP [6]) was 1250 ± 130 nM.

B8: siDGCR8-1 antisense (ssRNA)
RNA: AUCACACUCUUGUCCGAUGUU
modifications: 5'-phosphate
B8: no binding (NCAP [2]).

B9: S2 (ssRNA)
RNA: UAUAAUUAAUAACUAAUUACUG
For B9, the Kd (NCAP [3]) was 216 ± 23 nM, the binding result (LCD [7]) was “no binding” and the binding result (DD-C [8]) was “no binding”. B9: no binding (N-RBD [9]).

B10: F257 (structured_RNA)
RNA: GGUCGUUGACAGGACACGAGUAACUCGUCUAUCUUCUGCAGGCUGCUUACGGUUUCGUCCGUGUUGCAGCCGAUCAUCAGCACAUCUAGGUUUCGUCCGGGUGUGACCGAAAGGUAAGAUGGAGAGCCUUGUCCCUGGUUUCAACGAGAAAACACACGUCCAACUCAGUUUGCCUGUUUUACAGGUUCGCGACGUGCUCGUACGUGGCUUUGGAGACUCCGUGGAGGAGGUCUUAUCAGAGGCACGUCAACAUCUUAAA
B10 gave a Kd (NCAP [3]) of 23 ± 5 nM.

B11: S2hp (structured_RNA)
RNA: GGCUGUGUGGCUGUCACUCGGCUGCAUGCUUAGUGCACUCACGCAGUAUAAUUAAUAACUAAUUACUGUCGUUGACAGGACACGAGUAACUCGUCUAUCUUCUGCAGGCUGCUUACGGUUUCGUCCGUGUUGCAGCCGAUCAUCAGCACAUCUAGGUUUCGUCCGGGUGUGACCGAAAGGUAAGAUGGAGAGCCUUGUCCCUGGUUUCAACGA
Binder B11 has a Kd (NCAP [3]) of 173 ± 14 nM, a Kd (LCD [10]) of about 1410 nM and a Kd (DD-C [11]) of about 707 nM. It also gave a Kd (NCAP [6]) of 312 ± 39 nM and a Kd (N-RBD [12]) of about 354 nM.

B12: F127 (structured_RNA)
RNA: GGAUUAAAGGUUUAUACCUUCCCAGGUAACAAACCAACCAACUUUCGAUCUCUUGUAGAUCUGUUCUCUAAACGAACUUUAAAAUCUGUGUGGCUGUCACUCGGCUGCAUGCUUAGUGCACUCACGCAG
With B12 the Kd (NCAP [3]) was 183 ± 56 nM.

B13: S1.5hp (structured_RNA)
RNA: GGAUCUCUUGUAGAUCUGUUCUCUAAACGAACUUUAAAAUCUGUGUGGCUGUCACUCGGCUGCAUGCUUAGUGCACUCACGCAG
B13: binds (NCAP [1]).

B14: siDGCR8-1 duplex (dsRNA)
RNA 1: CAUCGGACAAGAGUGUGAUUU
RNA 2: AUCACACUCUUGUCCGAUGUU
modifications: 5'-phosphate on both strands
B14: binds (NCAP [2]).
